Data set [1] has as its system MS2 coat protein. In words: apparent KD of MS2 coat protein, switch ON state; designed switch direction (-1 OFF switch, 1 ON switch): -1; higher = weaker reporter binding. To be noted: FMN input: 0 or 200 uM; Eterna round: R93 (includes R88 designs). Summed up:
(§1)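 Illumina sequencing clusters were used for on-chip transcription of designed RNA switches. Titration with SNAP-549-labelled MS2 coat protein followed, in twofold steps from 0.7 or 1.5 nM to 3 µM in 100 mM Tris-HCl pH 7.5, 80 mM KCl, 4 mM MgCl2, without or with constant ligand. Apparent KD is each design's median of fits to normalised cluster binding curves.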

Data set [2] deals with MS2 coat protein. Kind of data set: apparent KD of MS2 coat protein, switch OFF state (with FMN for OFF switches, without FMN for ON switches); designed switch direction (-1 OFF switch, 1 ON switch): -1; higher = weaker reporter binding. To be noted: FMN input: 0 or 200 uM; Eterna round: R93 (includes R88 designs). Summed up: as §1

As for “AAAAAACAUGAGGAUCACCCAUGUCAGGAUAUGCUAUGGAAAAUAAAAAUAAAACAUAGCAGAAGGGACACCAA [64%, Meechl, 2]”, the “apparent KD of MS2 coat protein” value was determined as 32.8 nM with MS2 coat protein [1] and 58.1 nM with MS2 coat protein [2].
For “AAAAAACAUGAGGAUCACCCAUGUCAGGAUAUUUCUAAAAAAAAAAAAAAAAAAAAUGAAAGAAGGGACAAAAA [excalibur 6]”, the figures for the “apparent KD of MS2 coat protein” value with MS2 coat protein [1] and in the data set with MS2 coat protein [2] were 58 nM and 52.5 nM, respectively.
Consider “AAAAAACAUGAGGAUCACCCAUGUGAGGAUAUCAGUAGUCAGUCCUCGGAGUGAGUACUGAGAAGGCACAUAAA [Brourd 613 Mod 2- Jieux - Exclusion 1]”, for which the “apparent KD of MS2 coat protein” value in the data set with MS2 coat protein [1] came to 65.9 nM; in the data set with MS2 coat protein [2], 113 nM.
For “AAAAAACAUGAGGAUCACCCAUGUGAGGAUAUCGGUAGUGAGGGUAUAGUGUCAAUAGUGAGAAGGCGCAUAAA [Brourd 613 Mod 13 - Jieux - Exclusion 1]”, in that order: 26.3 nM and 28 nM.
Regarding “AAAAAACAUGAGGAUCACCCAUGUGAGGAUAUGAAAUUACUAAGACAACUGUAAUCAAUCAGAAGGCACAACAA [JR_Exc--1_Sub1207]”, the “apparent KD of MS2 coat protein” value with MS2 coat protein [1] came out at 23.6 nM; in the data set on MS2 coat protein [2] it was 38.6 nM.
“AAAAAACAUGAGGAUCACCCAUGUGAGGAUAUGCAAAACCCAAAUAAAAAGAGAAAAAGCAGAAGGCACAACAA [wbt round 1 mod 3]”: the “apparent KD of MS2 coat protein” value with MS2 coat protein [1] came to 15.7 nM; in the data set with MS2 coat protein [2] it was 13.8 nM.
For “AAAAAACAUGAGGAUCACCCAUGUGAGGAUAUUGGUAUUGAGGGUAUAAUCUCAAUAGCGAGAAGGCGCAUAAA [Brourd 613 Mod 14 - Jieux - Exclusion 1]”, in that order: 31.7 nM and 45.3 nM.
On to “AAAAAAGGAGGAUAUACGAACAUGUCAAAAGACGUGAAGGGACAUGAGGAUCACCCAUGUAGAAGGCUUAAAAA [JL Stem Breaker 4]”, for which the entries for the “apparent KD of MS2 coat protein” value in the data set on MS2 coat protein [1] and with MS2 coat protein [2] were 42.2 nM and 19.2 nM, respectively.
With “AAAAACGCAGGAUAUACAUGAGGAUCACCCAUGUAAAAAAAAAAAAAGGGAAAAAAAAGUAGAAGGGCGAAAAA [Menkhaure Snaaib]”, the “apparent KD of MS2 coat protein” value came to 21.4 nM in the data set on MS2 coat protein [1] and 43.3 nM in the data set with MS2 coat protein [2].
Regarding “AAAAAGAGAGGAUAUACAUGAGGAUCACCCAUGUAAAAAAGAAGAAAGAAAAAAAAAUGUAGAAGGCUCAAAAA ['Exclusion 3']”, the “apparent KD of MS2 coat protein” value worked out at 35.9 nM in the data set on MS2 coat protein [1] and 34.3 nM with MS2 coat protein [2].
“AAAAAGAUAGGAUAUACGAACAUGUCGAAAGACGUGAAGGGACAUGAGGAUCACCCAUGUAGAAGGAUUAAAAA [Mat - Exclusion 2 - JL mod - D89]”: the entries for the “apparent KD of MS2 coat protein” value in the data set with MS2 coat protein [1] and in the data set with MS2 coat protein [2] were 41.9 nM and 16.8 nM, respectively.
As for “AAAAAGGAAGGAUAUACGAACAUGUCGAAAGACGUGAAGGGACAUGAGGAUCACCCAUGUAGAAGGUUCAAAAA [Mat - Exclusion 2 - JL mod - D80]”, the “apparent KD of MS2 coat protein” value with MS2 coat protein [1] is 33.6 nM; with MS2 coat protein [2] it was 19.3 nM.
For “AAAAAGGCAGGAUAUACAAAAAAAAAAAAAGAGGAGGAGGGACAUGAGGAUCACCCAUGUAGAAGGGCCAAAAA [William Edward Burghardt 'W. E. B.' Du Bois]” the same measures were 35.4 nM and 63.7 nM.
For “AAAAAGGCAGGAUAUGCAUACACACGAAAAAAAAAACUGGGACAUGAGGAUCACCCAUGUAGAAGGGCCAAAAA [Dora Explored 9 - Jieux - Exclusion 2]”, in that order: 67.5 nM and 41.9 nM.
On to “AAAAAGGUAGGAUAUACAUGAGGAUCACCCAUGUGAAAAGAAAAUAAGAAAAGAAAGUGUAGAAGGACCAAAAA [JL JSci Mod In the Red]”, for which the figures for the “apparent KD of MS2 coat protein” value in the data set on MS2 coat protein [1] and in the data set with MS2 coat protein [2] were 33 nM and 44.1 nM, respectively.
For “AAAAAGGUAGGAUAUACGAAAAAAAAAAGGUGAAAAAAAAAACAUGAGGAUCACCCAUGUAGAAGGACCAAAAA [Ex 2 sub 1 70% 3]”, the “apparent KD of MS2 coat protein” value in the data set with MS2 coat protein [1] was determined as 36.5 nM; with MS2 coat protein [2], 62 nM.

These data come from the supplement of paper PMC9170038.
